Data set [1] addresses NPAS3;ARNT (mouse;mouse?, UniProt Q9QZQ0;P53762 56-455;82-464, |). Nature of the data set: fluorescence anisotropy; FP: 2 nM DNA, 20 mM Tris pH 8.0, 50 mM NaCl, 10 mM DTT, 30 min, temperature not stated (DNA annealed in 10 mM Tris pH 7.5, 1 mM EDTA, 2 mM MgCl2). The settings on record: protein: recombinant;recombinant; tags: vector pSJ2; copies: 1;1; blunt. (In fluorescence polarisation assays a small probe gives low polarisation when free and higher when bound to something large.)

In data set [2] the target is NPAS1;ARNT (mouse;mouse?, UniProt A2RSH6;P53762 43-423;82-464, |). The data set is described as above. The settings on record: protein: recombinant;recombinant; tags: vector pSJ2; copies: 1;1; blunt.
Chain of NPAS1;ARNT (chain, as listed by the source |, chain 1 of 2): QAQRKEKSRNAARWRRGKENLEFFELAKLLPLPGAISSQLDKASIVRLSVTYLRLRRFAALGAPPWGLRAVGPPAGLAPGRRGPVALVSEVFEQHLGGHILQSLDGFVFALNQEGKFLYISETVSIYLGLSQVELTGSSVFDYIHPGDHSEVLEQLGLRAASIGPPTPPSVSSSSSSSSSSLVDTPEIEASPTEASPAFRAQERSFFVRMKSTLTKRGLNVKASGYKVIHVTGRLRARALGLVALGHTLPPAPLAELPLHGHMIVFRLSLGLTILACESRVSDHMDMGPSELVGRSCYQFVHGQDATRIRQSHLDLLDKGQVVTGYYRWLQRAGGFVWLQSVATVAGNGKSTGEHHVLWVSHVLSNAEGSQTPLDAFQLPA
Chain of NPAS1;ARNT (P53762 82-464, chain 2 of 2): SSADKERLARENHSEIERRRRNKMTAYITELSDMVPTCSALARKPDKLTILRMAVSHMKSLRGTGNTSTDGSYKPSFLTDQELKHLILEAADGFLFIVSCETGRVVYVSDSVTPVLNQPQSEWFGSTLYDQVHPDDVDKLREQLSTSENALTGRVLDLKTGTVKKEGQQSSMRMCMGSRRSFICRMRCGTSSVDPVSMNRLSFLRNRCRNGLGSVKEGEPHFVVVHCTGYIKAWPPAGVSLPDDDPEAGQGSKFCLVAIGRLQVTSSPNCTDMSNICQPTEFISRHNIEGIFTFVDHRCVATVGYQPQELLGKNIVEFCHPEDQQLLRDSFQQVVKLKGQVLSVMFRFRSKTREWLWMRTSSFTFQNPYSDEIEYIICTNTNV

Chain of NPAS3;ARNT (Q9QZQ0 56-455, chain 1 of 2): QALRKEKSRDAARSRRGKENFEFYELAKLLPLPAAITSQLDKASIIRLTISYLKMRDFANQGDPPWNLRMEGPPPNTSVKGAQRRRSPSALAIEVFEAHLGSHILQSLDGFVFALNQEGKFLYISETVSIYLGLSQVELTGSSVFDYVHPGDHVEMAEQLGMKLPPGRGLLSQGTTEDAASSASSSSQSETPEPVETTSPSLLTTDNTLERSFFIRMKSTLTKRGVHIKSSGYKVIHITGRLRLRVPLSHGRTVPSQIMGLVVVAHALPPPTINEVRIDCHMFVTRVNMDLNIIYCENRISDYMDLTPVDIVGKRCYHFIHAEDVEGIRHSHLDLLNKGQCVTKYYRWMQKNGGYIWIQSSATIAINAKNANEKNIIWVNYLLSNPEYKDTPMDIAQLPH
Chain of NPAS3;ARNT (P53762 82-464, chain 2 of 2): as the sequence (P53762 82-464, chain 2 of 2) above

B1: HRE 21-mer (FP probe) (dsDNA)
DNA 1: GGCTGCGTACGTGCGGGTCGT
DNA 2: ACGACCCGCACGTACGCAGCC
As for B1, the Kd in data set [1] was found to be 17.5 ± 1.1 nM; in data set [2] it was 16.3 ± 1.1 nM.

As usually defined, the Kd is the concentration at which binding is half-saturated.
